Measured values reported in EP4688000A1 (dated 2026).

Assays:
[1] = target: T1, human integrin α6β1 on CHO-S cells (CHO-S-human ITGA6B1-#24) (human, UniProt P05556 21-798; P23229 24-1130); assay: flow cytometry on CHO-S-human ITGA6B1-#24 cells
T1 construct: whole, on cells; also called human ITGB1

[2] = target: T2, mouse integrin α6β4 on cells (CHO-S-murine ITGA6B4-#12; 4T1) (mouse, UniProt A2A863 29-1818; Q61739 24-1091); assay: flow cytometry on 4T1 and CHO-S-murine ITGA6B4-#12 cells
T2 construct: whole, on cells; also called mouse ITGB4; CHO-S-mouse ITGB4
T2 sequence (A2A863 29-1818, chain 1 of 2): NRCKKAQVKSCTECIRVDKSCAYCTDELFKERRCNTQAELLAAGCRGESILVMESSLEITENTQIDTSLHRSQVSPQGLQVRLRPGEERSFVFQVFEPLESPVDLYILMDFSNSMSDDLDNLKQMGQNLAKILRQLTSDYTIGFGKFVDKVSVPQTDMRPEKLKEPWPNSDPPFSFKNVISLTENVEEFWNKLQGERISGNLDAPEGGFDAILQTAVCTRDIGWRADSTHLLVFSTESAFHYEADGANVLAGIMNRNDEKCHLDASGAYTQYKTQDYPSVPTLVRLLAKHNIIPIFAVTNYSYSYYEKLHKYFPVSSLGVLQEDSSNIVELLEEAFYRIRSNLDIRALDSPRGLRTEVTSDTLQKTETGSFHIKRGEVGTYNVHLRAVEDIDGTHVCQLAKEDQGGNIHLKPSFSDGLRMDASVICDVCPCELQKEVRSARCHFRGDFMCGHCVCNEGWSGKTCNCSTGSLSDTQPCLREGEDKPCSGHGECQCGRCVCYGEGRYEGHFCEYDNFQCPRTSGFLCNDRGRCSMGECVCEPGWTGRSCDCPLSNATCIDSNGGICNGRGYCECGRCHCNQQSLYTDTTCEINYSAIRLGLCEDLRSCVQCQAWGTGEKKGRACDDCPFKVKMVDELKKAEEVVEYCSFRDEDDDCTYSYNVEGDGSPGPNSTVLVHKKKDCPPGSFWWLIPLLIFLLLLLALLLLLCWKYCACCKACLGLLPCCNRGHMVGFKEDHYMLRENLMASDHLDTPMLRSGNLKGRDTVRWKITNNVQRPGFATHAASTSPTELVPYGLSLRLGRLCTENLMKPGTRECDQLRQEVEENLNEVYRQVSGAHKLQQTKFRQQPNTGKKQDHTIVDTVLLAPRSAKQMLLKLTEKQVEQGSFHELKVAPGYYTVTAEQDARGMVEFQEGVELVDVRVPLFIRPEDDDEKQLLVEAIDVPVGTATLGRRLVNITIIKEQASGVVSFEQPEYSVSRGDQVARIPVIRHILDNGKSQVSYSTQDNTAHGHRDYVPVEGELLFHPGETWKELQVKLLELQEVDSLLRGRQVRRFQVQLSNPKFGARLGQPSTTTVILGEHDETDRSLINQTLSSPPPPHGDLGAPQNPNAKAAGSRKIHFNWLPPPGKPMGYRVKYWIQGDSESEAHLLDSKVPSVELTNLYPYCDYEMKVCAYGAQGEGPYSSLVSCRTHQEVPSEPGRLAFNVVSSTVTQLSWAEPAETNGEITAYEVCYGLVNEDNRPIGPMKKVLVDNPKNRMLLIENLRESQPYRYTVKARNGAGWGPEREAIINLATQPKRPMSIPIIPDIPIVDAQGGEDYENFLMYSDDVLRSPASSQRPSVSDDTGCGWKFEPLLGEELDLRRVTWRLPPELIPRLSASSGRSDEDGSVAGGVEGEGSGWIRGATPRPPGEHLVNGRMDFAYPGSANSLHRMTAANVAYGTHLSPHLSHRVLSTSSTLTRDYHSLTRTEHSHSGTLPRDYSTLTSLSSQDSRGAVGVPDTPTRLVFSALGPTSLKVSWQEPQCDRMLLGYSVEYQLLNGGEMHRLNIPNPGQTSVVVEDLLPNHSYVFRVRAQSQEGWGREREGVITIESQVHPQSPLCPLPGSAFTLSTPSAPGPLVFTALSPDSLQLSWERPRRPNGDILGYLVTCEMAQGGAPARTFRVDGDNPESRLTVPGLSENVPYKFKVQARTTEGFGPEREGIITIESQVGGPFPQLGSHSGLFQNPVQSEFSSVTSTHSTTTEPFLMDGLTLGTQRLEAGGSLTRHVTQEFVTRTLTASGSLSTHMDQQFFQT
T2 sequence (Q61739 24-1091, chain 2 of 2): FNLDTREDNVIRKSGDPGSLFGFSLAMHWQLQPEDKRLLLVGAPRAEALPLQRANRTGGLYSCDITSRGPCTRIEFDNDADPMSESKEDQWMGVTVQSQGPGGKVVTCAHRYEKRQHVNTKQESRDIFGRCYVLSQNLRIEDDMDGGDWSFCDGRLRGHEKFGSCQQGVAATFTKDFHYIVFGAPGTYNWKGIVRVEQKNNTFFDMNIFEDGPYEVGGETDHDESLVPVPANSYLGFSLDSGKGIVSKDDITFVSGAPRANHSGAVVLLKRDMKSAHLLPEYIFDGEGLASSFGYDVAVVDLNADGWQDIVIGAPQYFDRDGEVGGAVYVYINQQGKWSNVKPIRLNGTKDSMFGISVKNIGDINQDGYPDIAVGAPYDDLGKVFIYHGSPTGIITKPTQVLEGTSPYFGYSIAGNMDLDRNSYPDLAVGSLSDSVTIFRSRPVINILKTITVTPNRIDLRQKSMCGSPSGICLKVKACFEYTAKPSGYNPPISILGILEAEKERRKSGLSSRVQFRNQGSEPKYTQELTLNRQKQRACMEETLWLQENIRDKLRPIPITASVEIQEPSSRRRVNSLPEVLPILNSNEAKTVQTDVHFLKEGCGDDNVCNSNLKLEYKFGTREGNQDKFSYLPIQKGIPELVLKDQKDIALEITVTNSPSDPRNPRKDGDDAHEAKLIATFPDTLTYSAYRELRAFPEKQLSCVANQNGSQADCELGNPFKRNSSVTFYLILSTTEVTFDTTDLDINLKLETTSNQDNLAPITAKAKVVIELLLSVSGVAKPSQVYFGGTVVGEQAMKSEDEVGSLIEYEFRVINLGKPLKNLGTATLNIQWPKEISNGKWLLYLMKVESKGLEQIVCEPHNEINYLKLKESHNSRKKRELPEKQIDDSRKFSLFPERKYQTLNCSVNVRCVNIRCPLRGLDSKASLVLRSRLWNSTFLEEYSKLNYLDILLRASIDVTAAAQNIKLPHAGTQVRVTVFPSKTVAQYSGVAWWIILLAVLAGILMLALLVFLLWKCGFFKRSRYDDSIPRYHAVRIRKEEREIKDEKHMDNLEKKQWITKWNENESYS

T1 sequence (P05556 21-798, chain 1 of 2): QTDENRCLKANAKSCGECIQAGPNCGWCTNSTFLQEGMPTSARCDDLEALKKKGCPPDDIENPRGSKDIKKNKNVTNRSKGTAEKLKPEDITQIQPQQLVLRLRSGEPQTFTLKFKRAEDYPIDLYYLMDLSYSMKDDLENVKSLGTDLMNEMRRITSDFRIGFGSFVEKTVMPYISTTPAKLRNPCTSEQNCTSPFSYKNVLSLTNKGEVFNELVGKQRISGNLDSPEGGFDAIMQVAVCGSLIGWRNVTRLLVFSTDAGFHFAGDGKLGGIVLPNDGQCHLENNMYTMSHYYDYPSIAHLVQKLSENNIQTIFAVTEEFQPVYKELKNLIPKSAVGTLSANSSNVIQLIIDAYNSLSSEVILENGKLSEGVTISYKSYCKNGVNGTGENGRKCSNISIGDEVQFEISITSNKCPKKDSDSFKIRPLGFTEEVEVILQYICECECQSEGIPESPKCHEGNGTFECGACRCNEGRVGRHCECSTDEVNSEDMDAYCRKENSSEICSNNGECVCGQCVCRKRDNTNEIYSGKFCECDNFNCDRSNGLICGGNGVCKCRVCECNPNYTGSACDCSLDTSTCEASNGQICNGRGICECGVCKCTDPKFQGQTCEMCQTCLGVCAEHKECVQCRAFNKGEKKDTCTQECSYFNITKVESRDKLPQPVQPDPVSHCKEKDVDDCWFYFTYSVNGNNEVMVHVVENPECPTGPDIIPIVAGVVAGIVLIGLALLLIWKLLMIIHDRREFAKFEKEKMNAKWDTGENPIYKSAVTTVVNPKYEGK
T1 sequence (P23229 24-1130, chain 2 of 2): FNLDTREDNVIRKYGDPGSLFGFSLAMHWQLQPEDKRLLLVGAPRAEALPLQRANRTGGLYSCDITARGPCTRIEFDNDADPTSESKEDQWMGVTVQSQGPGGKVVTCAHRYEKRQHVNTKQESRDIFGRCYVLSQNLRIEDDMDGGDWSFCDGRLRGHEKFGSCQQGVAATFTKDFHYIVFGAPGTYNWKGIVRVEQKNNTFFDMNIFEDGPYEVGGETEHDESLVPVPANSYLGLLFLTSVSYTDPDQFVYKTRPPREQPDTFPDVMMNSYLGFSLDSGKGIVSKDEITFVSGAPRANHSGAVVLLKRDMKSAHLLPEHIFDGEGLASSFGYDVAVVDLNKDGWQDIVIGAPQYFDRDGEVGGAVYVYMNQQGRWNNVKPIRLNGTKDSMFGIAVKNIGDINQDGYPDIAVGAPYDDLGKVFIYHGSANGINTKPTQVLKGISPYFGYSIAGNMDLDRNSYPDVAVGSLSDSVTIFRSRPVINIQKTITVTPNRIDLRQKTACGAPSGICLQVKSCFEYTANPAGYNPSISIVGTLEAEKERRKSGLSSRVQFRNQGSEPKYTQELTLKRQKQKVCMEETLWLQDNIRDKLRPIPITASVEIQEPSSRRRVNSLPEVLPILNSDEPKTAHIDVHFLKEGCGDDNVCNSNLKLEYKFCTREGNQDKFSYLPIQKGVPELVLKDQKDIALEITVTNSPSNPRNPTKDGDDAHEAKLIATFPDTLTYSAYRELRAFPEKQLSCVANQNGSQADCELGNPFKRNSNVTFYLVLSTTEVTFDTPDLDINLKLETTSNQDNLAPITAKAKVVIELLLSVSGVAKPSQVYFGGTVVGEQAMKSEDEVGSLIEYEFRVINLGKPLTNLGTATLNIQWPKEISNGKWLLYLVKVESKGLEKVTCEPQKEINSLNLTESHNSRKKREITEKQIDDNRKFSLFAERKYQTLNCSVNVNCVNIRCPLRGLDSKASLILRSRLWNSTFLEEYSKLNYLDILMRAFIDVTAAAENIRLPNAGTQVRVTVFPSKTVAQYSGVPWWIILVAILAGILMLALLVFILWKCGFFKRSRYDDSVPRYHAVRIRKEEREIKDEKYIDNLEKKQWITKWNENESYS

binding result [1]: no binding
binding result [2]: no binding
B1: anti-ITGB4 antibody 008 (parental clone) (antibody, V domains shown)
VH: QVQLKQSGPSLVQPSQSLSITCTVSGFSLTSYGVHWFRQSPGKGLEWLGVIWRGGNTDYNAAFMSRLSITKDNSKSQVFFKMNSLQPDDTAIYYCVKNYRFGGSAYWGQGTLVTVSA
VL: DIQMTQTTSSLSASLGDRVTISCRASQDISNHLNWYQQKPDGTVKLLIYYTSTLHSGVPSRFSGSGSGTDYSLTISNLEPEDIATYYCQQDLNLPWTFGGGTKLEIK
notes: In the assays it was captured on anti-human IgG Fc sensors and detected with anti-human IgG, so the tested form carries a human Fc; also called 008 clone
